Assay results taken from paper PMC6125206 (Structure (London, England : 1993), 2018).

Target: the molecule itself
Assay: AUC

B1: E. coli cyclopropane fatty acid (CFA) synthase, wild type (from His6-TEV-CFA synthase) (enzyme, UniProt P0A9H7 1-382, looked up)
chain: MSSSCIEEVSVPDDNWYRIANELLSRAGIAINGSAPADIRVKNPDFFKRVLQEGSLGLGESYMDGWWECDRLDMFFSKVLRAGLENQLPHHFKDTLRIAGARLFNLQSKKRAWIVGKEHYDLGNDLFSRMLDPFMQYSCAYWKDADNLESAQQAKLKMICEKLQLKPGMRVLDIGCGWGGLAHYMASNYDVSVVGVTISAEQQKMAQERCEGLDVTILLQDYRDLNDQFDRIVSVGMFEHVGPKNYDTYFAVVDRNLKPEGIFLLHTIGSKKTDLNVDPWINKYIFPNGCLPSVRQIAQSSEPHFVMEDWHNFGADYDTTLMAWYERFLAAWPEIADNYSERFKRMFTYYLNACAGAFRARDIQLWQVVFSRGVENGLRVAR
stoichiometry N: 2
